In the supplement of paper PMC9732359:
± gives the uncertainty stated by the source.

Assay: protein stability index of a GFP-peptide fusion (yeast GPS) (PSI 1-4); higher = more stable; sorted into four equal gates, so the index is relative within each strain
Conditions: doa10∆
How it was run: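 The protein stability index combines read frequencies across sorting gates, each weighted by its gate number and then summed. To obtain those frequencies, a pooled yeast library of GFP fusions to tiled 17-residue yeast protein peptides, on a plasmid also expressing Cherry, was grown to mid-log phase in leucine-free medium. The cells were sorted into four equal gates by GFP/Cherry ratio before plasmid amplification by PCR and Illumina sequencing.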
Sequence YDLLISTLTTISGNPPL [SRB5] has a protein stability index of 2.43 ± 0.052.
With YDNGQVFPSSILDITDE [RPP0] the protein stability index was 1.91 ± 0.048.
For YDRATLTQLLSMMSDGI [RPO31], the protein stability index was 2.29 ± 0.062.
In the case of YEGMKLGNHAITIDSVV [YMR129W/POM152], the protein stability index is reported as 2.27 ± 0.094.
YELEFDTPTSGKHNLTI [BRR2] showed a protein stability index of 3.1 ± 0.068.

Same assay, conditions: pdr5∆
VKLPRAFIDERASDLRM [RRP43] showed a protein stability index of 1.68 ± 0.26.
Sequence VKMLRDNPGYKASKEIK [SIR3] has a protein stability index of 3.38 ± 0.19.
VKPLESSAKRSKNTAVS [SRP72] gave a protein stability index of 2.92 ± 0.11.
Work on VKQEDMPFNDQGIVPDI [RET1] yielded a protein stability index of 3.06 ± 0.059.
Work on VKSLLSEEKIRDYSKEI [SIR4] yielded a protein stability index of 2.48 ± 0.14.
VKTPKKTKYILQRPTAT [CSN12] showed a protein stability index of 3.03 ± 0.076.
Work on VKVLAATNRVDVLDPAL [RPT5] yielded a protein stability index of 2.84 ± 0.1.
Work on VLAKRMANLSQIYTQRA [SCL1] yielded a protein stability index of 3 ± 0.27.
VLARISPELSLQRHLSL [RRP43] gave a protein stability index of 2.04 ± 0.072.
VLESIVARTFWASKYGQ [BRR2] gave a protein stability index of 2.37 ± 0.062.
Sequence VLIANDVDPIELVVFLP [RPL8A] has a protein stability index of 2.85 ± 0.077.
VLIAQERSAGNIVQVFK [RPB2] gave a protein stability index of 3.39 ± 0.23.
VLIKMVKMLRDNPGYKA [SIR3] showed a protein stability index of 3.47 ± 0.068.
Sequence VLITDHIEKLENEFVVL [CDC53] has a protein stability index of 2.61 ± 0.055.
For VLITSYEMVIREKNALK [ISW2], the protein stability index was 2.53 ± 0.053.
In the case of VLKFLTDLEKKHLWDQK [RPC17], the protein stability index is reported as 3.41 ± 0.16.
VLLHGASLGIGLAAMGS [RPN2] showed a protein stability index of 1.9 ± 0.069.
VLMETKNTQSPQTPLVE [SNU114] showed a protein stability index of 2.93 ± 0.12.
VLQNVFKLVSTPSSNSN [MED1] showed a protein stability index of 1.67 ± 0.041.
For VLTYPEKVTRYNRHKLQ [RPO31], the protein stability index was 1.6 ± 0.048.
In the case of VMKDIYKVENVTLYWNN [ESC2], the protein stability index is reported as 1.62 ± 0.08.
In the case of VMNKNQETAISVAKLFK [RPT6], the protein stability index is reported as 1.72 ± 0.19.
Work on VMSIESLVEVVFYRGMT [FAS1] yielded a protein stability index of 2.12 ± 0.06.
VNDRYQIPTPNNTVDPG [CSI1] gave a protein stability index of 1.71 ± 0.075.
With VNETEAILYTKPGHVLQ [YGR119C/NUP57] the protein stability index was 3.12 ± 0.13.
VNGAKNLVVSGPPQSLY [FAS1] gave a protein stability index of 1.78 ± 0.066.
Sequence VNLPGGILRRKSESDEL [RRP4] has a protein stability index of 3.29 ± 0.15.
In the case of VPRLFDLVKPKNPKFSN [SMC4], the protein stability index is reported as 2.62 ± 0.061.
Work on VPVALKGQGPFTLTYDI [YMR129W/POM152] yielded a protein stability index of 2.95 ± 0.11.
In the case of VPVRSFKGHSHIVQDCT [ASC1], the protein stability index is reported as 3.11 ± 0.064.
VQDALLTNQLYKNHELL [SNF2] gave a protein stability index of 3.1 ± 0.072.
VQGKNLLTNFHGMDFTT [RPS1A] gave a protein stability index of 3.42 ± 0.055.
VQKDTAIIRLHPSIYTQ [POP1] showed a protein stability index of 2.19 ± 0.11.
VQMDKIRKIVRKDENQF [AAR2] gave a protein stability index of 2.81 ± 0.18.
For VREHYLRSDIPCLSRSC [DIS3], the protein stability index was 2.72 ± 0.051.
VRELVEKIDGMDVDSVK [RPC82] gave a protein stability index of 3.41 ± 0.27.
For VRIDKALELDDTVVSRV [ECM29], the protein stability index was 2.91 ± 0.15.
For VRIPPDQFHRDTISAIT [RPC25], the protein stability index was 2.43 ± 0.048.
Work on VRNACKRLIAHDWLNAL [YCG1] yielded a protein stability index of 2.97 ± 0.1.
VRQLYKGKKYQPKDLRA [RPL35A] showed a protein stability index of 3.17 ± 0.12.
With VRSLLEVVQTGAKNIEI [PRE6] the protein stability index was 3.29 ± 0.098.
For VRTNRFDIIEESFKGLQ [ECM29], the protein stability index was 2.47 ± 0.13.
VRYEEKRELKQLLEKAP [BRR2] gave a protein stability index of 2.35 ± 0.084.
With VRYTTSVMPPNEVYSAY [DLS1] the protein stability index was 3.12 ± 0.069.
In the case of VSANTPKSLNSNININV [SWI1], the protein stability index is reported as 2.64 ± 0.12.
Sequence VSIKDSTGCVVGLSQPD [YMR129W/POM152] has a protein stability index of 2.32 ± 0.058.
Work on VSIVKLDTQLITLLPSS [SNF12] yielded a protein stability index of 1.9 ± 0.05.
Work on VSKFYDKINQLSVVKYL [RPN9] yielded a protein stability index of 1.75 ± 0.083.
With VSKMEKAEKTLKSTKHS [SMC4] the protein stability index was 2.42 ± 0.044.
With VSLSQLLFIVGQVAIKT [YCS4] the protein stability index was 2.27 ± 0.062.
VSNPLIQRFFALHYLVP [COB] gave a protein stability index of 1.88 ± 0.059.
In the case of VSPTVGKLFSDIKVLKR [YIL149C/MLP2], the protein stability index is reported as 3.29 ± 0.077.
Sequence VSTSSGAAANNNDQKRQ [YJL041W/NSP1] has a protein stability index of 3.17 ± 0.073.
With VTADTVILFDSDWNPQA [ISW2] the protein stability index was 2.76 ± 0.058.
VTAEDFKQAKERVMKNK [RPT2] gave a protein stability index of 3.52 ± 0.12.
VTIIEPKEEEPILAPSV [RPS3] gave a protein stability index of 2.59 ± 0.22.
With VTIWYRAPELLLGARHY [SSN3] the protein stability index was 1.85 ± 0.096.
VTKITDMLLHKYYIVSS [SRB8] gave a protein stability index of 1.14 ± 0.068.
For VTKWTNQLTESASHFEQ [YJL041W/NSP1], the protein stability index was 3.19 ± 0.099.
In the case of VTLASILTTAVGLVSPS [RPN1], the protein stability index is reported as 1.55 ± 0.081.
With VTLRKSLYTNTSRKALE [RPL3] the protein stability index was 2.26 ± 0.059.
With VTNDDKSDDDDHTVDEI [SRB8] the protein stability index was 2.8 ± 0.085.
With VTVFLFMLILALFVFYS [COB] the protein stability index was 1.8 ± 0.042.
VVARRSNSANVSSPESE [ITC1] showed a protein stability index of 3.35 ± 0.053.
For VVDRESDIPKTTVQVAE [PRE4], the protein stability index was 2.99 ± 0.1.
In the case of VVEACGNIVAELAQDPQ [YCS4], the protein stability index is reported as 3.38 ± 0.15.
Sequence VVKGRVEKTLLSDVAFY [RPO31] has a protein stability index of 3.14 ± 0.23.
In the case of VVRRRFRGNISQPKIGY [RPL32], the protein stability index is reported as 2.88 ± 0.06.
In the case of VVSCSQHGFEVQVGPMK [RPB7], the protein stability index is reported as 3.15 ± 0.098.
VVVKNWGAETDELSMIM [RPS12] gave a protein stability index of 3.4 ± 0.14.
For VYANNPEVSDDGGLEEE [SIR3], the protein stability index was 2.87 ± 0.12.
Work on VYGEGTSRVTGILLLDS [YJL039C/NUP192] yielded a protein stability index of 3.31 ± 0.091.
VYKDNLSFIQVRIDLGT [RPO31] gave a protein stability index of 1.58 ± 0.074.
Sequence VYLSLLDKDSSQSSAAA [RPN6] has a protein stability index of 3.21 ± 0.069.
Work on VYLTAVLEYLAAEILEL [HTA1] yielded a protein stability index of 2.43 ± 0.1.
Sequence VYSVDPLEKITDAYLDQ [PRP8] has a protein stability index of 3.11 ± 0.15.
Work on WALKSSLNSMTNAKLPN [RGR1] yielded a protein stability index of 2.77 ± 0.13.
WDLQLQEKESQIQLAES [SMC4] gave a protein stability index of 3.08 ± 0.076.
WGVNLPAHTVIIKGTDV [BRR2] showed a protein stability index of 2.79 ± 0.13.
WIAMRREKRDRTHFKRM [PRP8] gave a protein stability index of 2.54 ± 0.078.
WKDFTVEIAFLFRAIYL [YCG1] gave a protein stability index of 2.36 ± 0.064.
In the case of WKLLNQLVLRGLLSQAI [YJR042W/NUP85], the protein stability index is reported as 1.3 ± 0.076.
Sequence WKPNPSYDVENVNSRNQ [SRB5] has a protein stability index of 2.95 ± 0.14.
Work on WLEEYHPKLIKNKSGKI [FAS1] yielded a protein stability index of 1.83 ± 0.075.
In the case of WLKNKFAEENITHKLTK [BRR2], the protein stability index is reported as 3.03 ± 0.06.
WPTTHKYPLGHFVRDLG [DIS3] gave a protein stability index of 2.58 ± 0.086.
For WREIIEKVRDYENSISK [IRR1], the protein stability index was 2.59 ± 0.085.
Work on WRKWNVKVNHNEKRYAT [RPL4A] yielded a protein stability index of 2.94 ± 0.16.
WRQFGNRMQISPDQMRN [GRR1] showed a protein stability index of 3.14 ± 0.12.
Sequence WVKKFKWAGIKTRKFVF [CYT1] has a protein stability index of 1.51 ± 0.1.
For WYQFSNSKDHKKITLQL [SIN4], the protein stability index was 3.47 ± 0.12.
YDDFIYLSDLKQFFQMT [PCI8] gave a protein stability index of 2.89 ± 0.073.
